Test results: patent US20250073350A1 (BROAD INSTITUTE, published 2025)

B1: MmMOAP1, bacterially produced (other, mouse, UniProt Q9ERH6 1-352, looked up)
chain: MTLRLLEDWCRGMDMNPRKALLVAGIPPTCGVADIEEALQAGLAPLGEHRLLGRMFRRDENKNVALIGLTVETGSALVPKEIPAKGGVWRVIFKPPDTDSDFLCRLNEFLKGEGMTMGELTRVLGNRNDPLGLDPGIMIPEIRAPMLAQALNEALKPTLQYLRYKKLSVFSGRDPPGPGEEEFESWMFHTSQVMKTWQVSDVEKRRRLIESLRGPAFEIIRVLKINNPFITVAECLKTLETIFGIIDNPRALQVKYLTTYQKTDEKLSAYVLRLEPLLQKLVQKGAIEKEVVNQARLDQVIAGAVHKSVRRELGLPEGSPAPGLLQLLTLIKDKEAEEEEVLLQAELEGYCT
notes: also called modulator of apoptosis 1
B2: MmPNMA5, bacterially produced (other, mouse, UniProt Q5DTT8 1-618, looked up)
chain: MAVALLDDWCKGMDLDPKKAVLIVGIPVQYTEAAINDALKEGLPPLCAYKVIGRMFRREDEAKAVLIELPEVVDYTMMPTHIPAEGGAWEVVVKPRSPDDEFMNKLIYFLRDEGRRIVDVAKALGFSTVPTGKIELKNLDQDKPKGLKSLCNNSTCYKKLKVFSGSPFPGPGEESFETWLEEVTELMQLWQVSEREKKQCLLESLRGSALSIMQALWTSNDSLTVEQCLKALKHIFGNKEDSKVLQFRFLQSSQKPAEKVSDYLLRLEPLLQKAVQQSPLSAHSADSIRLKHVLSQVSMTTGLRGKLSLLDQQGCPPTFLELMKLTRDEEEWESTVVVEEQEQVRRDSSACEAANEVVTQAEDSREVSTQTTGEEMTSVKRRRLLWRHSAGEEGQRKESGFWAESEPDEQKPYVRAQESGNERGAWAVSHPNPKEIEAQDSQEFLPVAGNRDTLTKSWGSPDKGTGDMSVAEGQQGQGKAPNFLLARNDPNKQEQIPHSSVTTKWQDRGECQRLKWGASMITRPQGNPDRSWDTSGSQDGEDGCSELRMPTGTEAAQGVEEPATGLSWAEDTSAWEQARLGRETVPRRGGRRIQPVFRIIYTALGEPHEGSTLESFRE
notes: also called paraneoplastic antigen-like protein 5

Target: the molecule itself
Test: self-association; size exclusion and electron microscopy of protein produced in E. coli

Row | Protein | binding result
1 | B1 | binds
2 | B2 | binds
